Source: article PMC9254107, “The Toxoplasma glucan phosphatase TgLaforin utilizes a distinct functional mechanism that can be exploited by therapeutic inhibitors” (The Journal of Biological Chemistry, 2022)

Target: the molecule itself
Test: SEC-MALS; Superdex 200 10/300; 500 ul of 2 mg/ml protein loaded, 0.5 ml/min; purification buffer of full-length TgLaforin (50 mM Hepes, 100 mM NaCl, 15 mM imidazole, 2 mM DTT, pH 8.0)

B1: TgLaforin (Toxoplasma gondii laforin, glucan phosphatase), full length (enzyme, UniProt S8F2K7 1-523, looked up)
chain: MRVRFSVTAFVPPNAQLGVVGSAPFLGEWKLEHCVPLMPYSAPHPQGLEPSLWFRDIDLDPASCPNDTNDVHSTAAVSASCSADRRRCDLSRQSPHCFPSARSASPYMVEVSRGDCPFAVELMSTSQHVLSEFSKHNSPVYSAGEQRFRRSLPSSASFSSCTSSGSAVAATKCVWDAAAYRVATRAPEVQAVLESHPLRHCAFEYKFVLWYPPNGEIAVPYVPTTAGEEVPITYAGDSEVLNEESEGGARRRSWRKWLFPPSPSRCPAPPGPSESIVWEGFGPDSNRKFCFDPFDVVVDVNELGDLECLYICRIAHFRDPRAGGVGEYDLTTRFYNSVKSECRMHYSTIFPRFFVGSCPRQLKHIRHLKEELKVTCVVNLQTEQDLCNNYPDPIASSRSAEAVSQLYDGSGLRYVWLPTADMCDSARKIAVANAAFLLLGLFQSGHSVYMHCNAGVGRSVAAACAFLCFAVGLDLRKVNFLICARRPVAYWDEKAMKYGIGDYQAKFGHCRVVGEEAEERQHA
notes: TgLaforin, Toxoplasma gondii glucan phosphatase, ToxoDB TGME49_205290, 523 amino acids; N-terminal split CBM20 followed by a DSP domain; predicted recombinant monomer 61.5 kDa; also called T. gondii laforin; full-length TgLaforin; source: Sf9 insect cells (baculovirus), purified (Ni-agarose, SEC) to >95% homogeneity
- stoichiometry N: 2
